The text below walks through data of paper doi:10.1101/2021.01.21.427566, “Gradual opening of Smc arms in prokaryotic condensin” (bioRxiv, 2021).

The data set concerns the molecule itself. The data set can be described thus: EPR-DEER; MTSL-labelled single-cysteine Smc, 5 µM, mixed with ScpA and ScpB (similar trends without ScpAB); apo, or with 1 mM ATP and 10 µM dsDNA40; 50 mM Tris-HCl pH 7.5, 50 mM NaCl, 2 mM MgCl2, 40 % ethylene glycol-d6, 90 % deuterium oxide; shock-frozen, DEER traces at 50 K, Q band; spin-spin distances between the two Smc of a dimer.

B1: Smc^3S(D193C) (natural protein, B. subtilis, UniProt P51834 1-1186, looked up)
chain: MFLKRLDVIGFKSFAERISVDFVKGVTAVVGPNGSGKSNITDAIRWVLGEQSARSLRGGKMEDIIFAGSDSRKRLNLAEVTLTLDNDDHFLPIDFHEVSVTRRVYRSGESEFLINNQPSRLKDIIDLFMDSGLGKEAFSIISQGKVEEILSSKAEDRRSIFEEAAGVLKYKTRKKKAENKLFETQDNLNRVECILHELEGQVEPLKIQASIAKDYLEKKKELEHVEIALTAYDIEELHGKWSTLKEKVQMAKEEELAESSAISAKEAKIEDTRDKIQALDESVDELQQVLLVTSEELEKLEGRKEVLKERKKNAVQNQEQLEEAIVQFQQKETVLKEELSKQEAVFETLQAEVKQLRAQVKEKQQALSLHNENVEEKIEQLKSDYFELLNSQASIRNELQLLDDQMSQSAVTLQRLADNNEKHLQERHDISARKAASETEFARIEQEIHSQVGAYRDMQTKYEQKKRQYEKNESALYQAYQYVQQARSKKDMLETMQGDFSGFYQGVKEVLKAKERLGGIRGAVLELISTEQKYETAIEIALGASAQHVVTDDEQSARKAIQYLKQNSFGRATFLPLSVIRDRQLQSRDAETAARHSSFLGVASELVTFDPAYRSVIQNLLGTVLITEDLKGANELAKLLGHRYRIVTLEGDVVNPGGSMTGGAVKKKNNSLLGRSRELEDVTKRLAEMEEKTALLEQEVKTLKHSIQDMEKKLADLRETGEGLRLKQQDVKGQLYELQVAEKNINTHLELYDQEKSALSESDEERKVRKRKLEEELSAVSEKMKQLEEDIDRLTKQKQTQSSTKESLSNELTELKIAAAKKEQASKGEEDNLARLKKELTETELALKEAKEDLSFLTSEMSSSTSGEEKLEEAAKHKLNDKTKTIELIALRRDQRIKLQHGLDTYERELKEMKRLYKQKTTLLKDEEVKLGRMEVELDNLLQYLREEYSLSFEGAKEKYQLETDPEEARKRVKLIKLAIEELGTVNLGSIDEFERVNERYKFLSEQKEDLTEAKNTLFQVIEEMDEEMTKRFNDTFVQIRSHFDQVFRSLFGGGRAELRLTDPNDLLHSGVEIIAQPPGKKLQNLNLLSGGERALTAIALLFSILKVRPVPFCVLDEVEAALDEANVFRFAQYLKKYSSDTQFIVITHRKGTMEEADVLYGVTMQESGVSKVISVKLEETKEFVQ
modifications: MTSL spin label on the engineered cysteine 193
notes: Smc, Bacillus subtilis (Bsu), cysteine-lite Smc^3S background with D193C, without E1118Q; also called wild-type Smc (without E1118Q) with D193C; wt Smc; source: E. coli BL21-Gold (DE3), purified (HiTrap Blue, Heparin, gel filtration)
Turning to B1, the binding result is “binds”.
